Source: the supplement of paper PMC11246515
± gives the standard deviation of the averaged measurements.

Experiment: total protein half-life in vivo (active degradation + dilution); higher = more stable protein
[1] = E. coli NCM3722 delta-clpP delta-lon delta-hslV, growth: N-lim chemostat, doubling time 6 h
[2] = E. coli NCM3722 delta-clpP, growth: N-lim chemostat, doubling time 6 h
[3] = E. coli NCM3722 delta-hslV, growth: N-lim chemostat, doubling time 6 h
[4] = E. coli NCM3722 delta-lon, growth: N-lim chemostat, doubling time 6 h
[5] = E. coli NCM3722 delta-smpB, growth: N-lim chemostat, doubling time 6 h
[6] = wild type E. coli NCM3722, growth: C-lim chemostat, doubling time 3 h
[7] = wild type E. coli NCM3722, growth: C-lim chemostat, doubling time 6 h
[8] = wild type E. coli NCM3722, growth: C-lim chemostat, doubling time 12 h
[9] = wild type E. coli NCM3722, growth: N-lim chemostat, doubling time 6 h
[10] = wild type E. coli NCM3722, growth: N-lim chemostat, doubling time 12 h
[11] = wild type E. coli NCM3722, growth: P-lim chemostat, doubling time 6 h
[12] = wild type E. coli NCM3722, growth: P-lim chemostat, doubling time 12 h

Sequence | total protein half-life in vivo [1] | total protein half-life in vivo [2] | total protein half-life in vivo [3] | total protein half-life in vivo [4] | total protein half-life in vivo [5] | total protein half-life in vivo [6] | total protein half-life in vivo [7] | total protein half-life in vivo [8] | total protein half-life in vivo [9] | total protein half-life in vivo [10] | total protein half-life in vivo [11] | total protein half-life in vivo [12]
MNKRDAINHIRQFGGRLDRFRKSVGGSGDGGRNAPKRAKSSPKPVNRKTNVFNEQVRYAFHGALQDLKSKPFATFLTVMVIAISLTLPSVCYMVYKNVNQAATQYYPSPQITVYLQKTLDDDAAAGVVAQLQAEQGVEKVNYLSREDALGEFRNWSGFGGALDMLEENPLPAVAVVIPKLDFQGTESLNTLRDRITQINGIDEVRMDDSWFARLAALTGLVGRVSAMIGVLMVAAVFLVIGNSVRLSIFARRDSINVQKLIGATDGFILRPFLYGGALLGFSGALLSLILSEILVLRLSSAVAEVAQVFGTKFDINGLSFDECLLLLLVCSMIGWVAAWLATVQHLRHFTPE [P0AC30] | 6.31 ± 0.59 h | 6.43 ± 0.28 h | 6.04 ± 0.071 h | 6.55 ± 0.64 h | 6.02 ± 0.32 h | 3.17 ± 0.15 h | 5.86 ± 0.36 h | 12.5 ± 2.4 h | 6.42 ± 0.099 h | 12.3 ± 1.8 h | 5.99 ± 0.82 h | 13.5 ± 1.3 h
MEKLRVGIVFGGKSAEHEVSLQSAKNIVDAIDKSRFDVVLLGIDKQGQWHVSDASNYLLNADDPAHIALRPSATSLAQVPGKHEHQLIDAQNGQPLPTVDVIFPIVHGTLGEDGSLQGMLRVANLPFVGSDVLASAACMDKDVTKRLLRDAGLNIAPFITLTRANRHNISFAEVESKLGLPLFVKPANQGSSVGVSKVTSEEQYAIAVDLAFEFDHKVIVEQGIKGREIECAVLGNDNPQASTCGEIVLTSDFYAYDTKYIDEDGAKVVVPAAIAPEINDKIRAIAVQAYQTLGCAGMARVDVFLTPENEVVINEINTLPGFTNISMYPKLWQASGLGYTDLITRLIELALERHAADNALKTTM [P0A6J8] | 4.83 ± 0.18 h | 5.65 ± 1.4 h | 4.95 ± 0.063 h | 6.41 ± 1.5 h | 4.9 ± 0.21 h | 2.99 ± 0.12 h | – | 10.5 ± 0.68 h | 4.89 ± 0.086 h | 8.61 ± 0.1 h | 5.56 ± 0.49 h | 11.5 ± 0.22 h
MKTAKEYSDTAKREVSVDVDALLAAINEISESEVHRSQNDSEHVSVDGREYHTWRELADAFELDIHDFSVSEVNR | 4.23 ± 0.73 h | 1.58 h | – | 0.678 h | 0.551 h | – | – | 1.38 h | – | 1.03 h | – | –
MRFCLILITALLLAGCSHHKAPPPNARLSDSITVIAGLNDQLQSWHGTPYRYGGMTRRGVDCSGFVVVTMRDRFDLQLPRETKQQASIGTQIDKDELLPGDLVFFKTGSGQNGLHVGIYDTNNQFIHASTSKGVMRSSLDNVYWQKNFWQARRI | – | 1.22 h | – | 0.828 h | 1.61 ± 0.18 h | 0.468 ± 0.23 h | 1.4 h | > 16 h | – | 4.32 h | 2.28 h | 4.21 ± 0.75 h
MLQVYLVRHGETQWNAERRIQGQSDSPLTAKGEQQAMQVATRAKELGITHIISSDLGRTRRTAEIIAQACGCDIIFDSRLRELNMGVLEKRHIDSLTEEEENWRRQLVNGTVDGRIPEGESMQELSDRVNAALESCRDLPQGSRPLLVSHGIALGCLVSTILGLPAWAERRLRLRNCSISRVDYQESLWLASGWVVETAGDISHLDAPALDELQR [P0A7A2] | 4.23 ± 1.4 h | 2.57 ± 0.17 h | 2.36 ± 0.011 h | 2.852 ± 0.012 h | 2.65 ± 0.051 h | 2.75 ± 0.28 h | 4.55 ± 0.27 h | 7.06 ± 0.16 h | 2.71 ± 0.11 h | 3.84 ± 0.45 h | 4.88 ± 0.12 h | 8.06 ± 1 h
MNMMRIFYIGLSGVGMMFSSMASGNDAGGLQSPACGVVCDPYICVNSDGISPELTRKYLGEKAAENLQSLQGYDPSEFTFANGVFCDVKEKLCRDDRYFGVDGKRSGKINQTTTKMLFMCRE | 5.09 ± 1.6 h | 5.4 h | 6.01 ± 0.28 h | 5.64 h | – | 2.85 ± 0.51 h | 5.52 ± 0.4 h | – | 4.42 ± 1.2 h | > 16 h | 4.78 ± 0.93 h | –
MVDKSQETTHFGFQTVAKEQKADMVAHVFHSVASKYDVMNDLMSFGIHRLWKRFTIDCSGVRRGQTVLDLAGGTGDLTAKFSRLVGETGKVVLADINESMLKMGREKLRNIGVIGNVEYVQANAEALPFPDNTFDCITISFGLRNVTDKDKALRSMYRVLKPGGRLLVLEFSKPIIEPLSKAYDAYSFHVLPRIGSLVANDADSYRYLAESIRMHPDQDTLKAMMQDAGFESVDYYNLTAGVVALHRGYKF [P0A887] | 5.402 ± 0.0099 h | 4.951 ± 0.013 h | 4.18 ± 0.12 h | 4.9 ± 0.36 h | 4.19 ± 0.076 h | 2.405 ± 0.0086 h | 4.67 ± 0.086 h | 7.96 ± 0.38 h | 4.36 ± 0.36 h | 8.27 ± 1.5 h | 4.45 ± 0.31 h | 8.773 ± 0.069 h
MKTLNRRDFPGAQYPERIIQFGEGNFLRAFVDWQIDLLNEHTDLNSGVVVVRPIETSFPPSLSTQDGLYTTIIRGLNEKGEAVSDARLIRSVNREISVYSEYDEFLKLAHNPEMRFVFSNTTEAGISYHAGDKFDDAPAVSYPAKLTRLLFERFSHFNGALDKGWIIIPCELIDYNGDALRELVLRYAQEWALPEAFIQWLDQANSFCSTLVDRIVTGYPRDEVAKLEEELGYHDGFLDTAEHFYLFVIQGPKSLATELRLDKYPLNVLIVDDIKPYKERKVAILNGAHTALVPVAFQAGLDTVGEAMNDAEICAFVEKAIYEEIIPVLDLPRDELESFASAVTGRFRNPYIKHQLLSIALNGMTKFRTRILPQLLAGQKANGTLPARLTFALAALIAFYRGERNGETYPVQDDAHWLERYQQLWSQHRDRVIGTQELVAIVLAEKDHWEQDLTQVPGLVEQVANDLDAILEKGMREAVRPLC [P0A6L7] | – | – | – | – | – | 3.15 ± 0.18 h | 4.58 ± 0.071 h | 8.15 ± 1.3 h | – | – | 5.26 ± 0.51 h | –
MVKKAIVTAMAVISLFTLMGCNNRAEVDTLSPAQAAELKPMPQSWRGVLPCADCEGIETSLFLEKDGTWVMNERYLGAREEPSSFASYGTWARTADKLVLTDSKGEKSYYRAKGDALEMLDREGNPIESQFNYTLEAAQSSLPMTPMTLRGMYFYMADAATFTDCATGKRFMVANNAELERSYLAARGHSEKPVLLSVEGHFTLEGNPDTGAPTKVLAPDTAGKFYPNQDCSSLGQ | 5.34 ± 0.088 h | 5.68 ± 0.11 h | 5.99 ± 0.23 h | 6.787 ± 0.0084 h | 5.976 ± 0.058 h | 3.13 ± 0.2 h | 6.4 ± 0.79 h | 10.7 ± 0.25 h | 6.083 ± 0.0085 h | 11.5 ± 0.38 h | 5.63 ± 0.41 h | –
MSDQLQMTDGMHIIVEALKQNNIDTIYGVVGIPVTDMARHAQAEGIRYIGFRHEQSAGYAAAASGFLTQKPGICLTVSAPGFLNGLTALANATVNGFPMIMISGSSDRAIVDLQQGDYEELDQMNAAKPYAKAAFRVNQPQDLGIALARAIRVSVSGRPGGVYLDLPANVLAATMEKDEALTTIVKVENPSPALLPCPKSVTSAISLLAKAERPLIILGKGAAYSQADEQLREFIESAQIPFLPMSMAKGILEDTHPLSAAAARSFALANADVVMLVGARLNWLLAHGKKGWAADTQFIQLDIEPQEIDSNRPIAVPVVGDIASSMQGMLAELKQNTFTTPLVWRDILNIHKQQNAQKMHEKLSTDTQPLNYFNALSAVRDVLRENQDIYLVNEGANTLDNARNIIDMYKPRRRLDCGTWGVMGIGMGYAIGASVTSGSPVVAIEGDSAFGFSGMEIETICRYNLPVTIVIFNNGGIYRGDGVDLSGAGAPSPTDLLHHARYDKLMDAFRGVGYNVTTTDELRHALTTGIQSRKPTIINVVIDPAAGTESGHITKLNPKQVAGN [P0AFI0] | 5.61 ± 0.33 h | – | – | – | 3.08 h | > 4 h | 3.11 h | – | – | – | 4.43 h | 9.26 ± 0.98 h
MLDLFKAIGLGLVVLLPLANPLTTVALFLGLAGNMNSAERNRQSLMASVYVFAIMMVAYYAGQLVMDTFGISIPGLRIAGGLIVAFIGFRMLFPQQKAIDSPEAKSKSEELEDEPSANIAFVPLAMPSTAGPGTIAMIISSASTVRQSSTFADWVLMVAPPLIFFLVAVILWGSLRSSGAIMRLVGKGGIEAISRLMGFLLVCMGVQFIINGILEIIKTYH [P0AEY1] | – | 6.57 ± 0.74 h | 5.91 h | 6.14 ± 0.6 h | 6.12 ± 0.25 h | – | 5.73 ± 0.56 h | 11.1 ± 0.56 h | – | 10.7 h | 6.23 ± 0.11 h | 13 ± 1 h
MQFDWSAIWPAIPLLIEGAKMTLWISVLGLAGGLVIGLLAGFARTFGGWIANHVALVFIEVIRGTPIVVQVMFIYFALPMAFNDLRIDPFTAAVVTIMINSGAYIAEITRGAVLSIHKGFREAGLALGLSRWETIRYVILPLALRRMLPPLGNQWIISIKDTSLFIVIGVAELTRQGQEIIAGNFRALEIWSAVAVFYLIITLVLSFILRRLERRMKIL [P0AEQ6] | 7.5 ± 0.32 h | 5.86 ± 0.24 h | 6.66 ± 0.23 h | 5.82 ± 0.19 h | 6.3 ± 1.3 h | 3.216 ± 0.017 h | 6.15 ± 0.25 h | – | 6.75 ± 0.56 h | 11.4 ± 4.3 h | – | 13 ± 0.43 h
MTDLPDSTRWQLWIVAFGFFMQSLDTTIVNTALPSMAQSLGESPLHMHMVIVSYVLTVAVMLPASGWLADKVGVRNIFFTAIVLFTLGSLFCALSGTLNELLLARALQGVGGAMMVPVGRLTVMKIVPREQYMAAMTFVTLPGQVGPLLGPALGGLLVEYASWHWIFLINIPVGIIGAIATLLLMPNYTMQTRRFDLSGFLLLAVGMAVLTLALDGSKGTGLSPLTIAGLVAVGVVALVLYLLHARNNNRALFSLKLFRTRTFSLGLAGSFAGRIGSGMLPFMTPVFLQIGLGFSPFHAGLMMIPMVLGSMGMKRIVVQVVNRFGYRRVLVATTLGLSLVTLLFMTTALLGWYYVLPFVLFLQGMVNSTRFSSMNTLTLKDLPDNLASSGNSLLSMIMQLSMSIGVTIAGLLLGLFGSQHVSVDSGTTQTVFMYTWLSMALIIALPAFIFARVPNDTHQNVAISRRKRSAQ | – | – | – | – | – | – | – | – | – | – | – | 15.7 h
